The subject of the series is plasminogen.

For “human low molecular weight urokinase-plasminogen activator (LMW-u-PA)”, the “amidolytic activity, chromogenic substrates Chromozyme U and S-2251, absorbance at 405 nm” value is given as “Cells transfected with pLMW-u-PA showed much higher levels of u-PA activity compared to cells transfected with pSPUC1A”.

Values taken from patent US20090305961.
